In this series the target is T1, Mre11 (UniProt P49959 1-708).
T1 sequence: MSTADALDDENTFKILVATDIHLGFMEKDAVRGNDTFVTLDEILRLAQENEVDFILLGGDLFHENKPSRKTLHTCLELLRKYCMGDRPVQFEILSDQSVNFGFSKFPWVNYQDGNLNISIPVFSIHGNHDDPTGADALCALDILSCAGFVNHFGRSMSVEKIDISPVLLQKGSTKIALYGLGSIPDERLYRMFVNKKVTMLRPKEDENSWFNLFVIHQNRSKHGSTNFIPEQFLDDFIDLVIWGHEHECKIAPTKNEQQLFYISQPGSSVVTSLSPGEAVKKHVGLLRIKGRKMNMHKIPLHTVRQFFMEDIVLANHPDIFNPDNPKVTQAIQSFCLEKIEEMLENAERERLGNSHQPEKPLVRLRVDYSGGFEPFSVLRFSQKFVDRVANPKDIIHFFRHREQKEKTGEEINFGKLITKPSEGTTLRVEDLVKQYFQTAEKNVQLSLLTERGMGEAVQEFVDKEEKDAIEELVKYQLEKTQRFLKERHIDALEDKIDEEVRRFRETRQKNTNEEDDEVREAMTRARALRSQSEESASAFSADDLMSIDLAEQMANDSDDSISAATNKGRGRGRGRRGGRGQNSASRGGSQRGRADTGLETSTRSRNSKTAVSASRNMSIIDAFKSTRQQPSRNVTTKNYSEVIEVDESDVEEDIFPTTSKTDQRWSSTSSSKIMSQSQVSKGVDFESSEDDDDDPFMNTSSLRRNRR
Nature of the series: EMSA; increasing Mre11; 1 mM Mg acetate; no Bcl2; EMSA: 25 mM MOPS pH 7.0, 60 mM KCl, 0.2% Tween, 2 mM DTT, 1 mM Mg(CH3COO)2, 37 C 15 min; 10 pM DNA, 10 nM Mre11; 5% native PAGE in TBE at 4 C. The following applies: protein: recombinant; tags: Flag; chain copies: 2; label: 5'-32P on TP423; 34 bp duplex (S3[1-34] with S4[1-34]); 3' overhangs 16 nt (TP423) and 15 nt (TP424).

B1: TP423/TP424 3' overhanging duplex (dsDNA)
DNA 1: CTGCAGGGTTTTTGTTCCAGTCTGTAGCACTGTGTAAGACAGGCCAGATC
DNA 2: CACAGTGCTACAGACTGGAACAAAAACCCTGCAGTACTCTACTCATCTC
Take B1: the binding result was “binds”.

These data come from publication PMC4333404, “Bcl2 inhibits recruitment of Mre11 complex to DNA double-strand breaks in response to high-linear energy transfer radiation”.
